Substitutions are numbered along the chain they refer to. Names may count otherwise.
B1: VH G57D (27BIT) (Fab, V domains shown)
VH: EVQLVQSGAEVKKPGASVKVSCKASGYTFTSYWMHWVRQAPGQGLEWMGRIDPQSGDIKYAQKFQGRATLTVDTSTSTAYMELSRLRSDDTAVYYCARWDYGGYFDVWGQGTLVTVSS
VL: DIQMTQSPSSLSASVGDRVTITCRASQDITNYLNWYQQKPGKAVKLLIYYTSRLHSGVPSRFSGSGSGTDYTLTISSLQPEDFATYFCQQGDTLPWTFGQGTKLEIKR
notes: Light chain: parental 20E6 LC, implied
B2: VH G57E (63BIT) (Fab, V domains shown)
VH: B1 VH with D57E
VL: B1 VL
notes: as for B1
B3: VH G102S (29BIT) (Fab, V domains shown)
VH: B1 VH with D57G, G102S
VL: B1 VL
notes: as for B1
B4: VH H35K (30BIT) (Fab, V domains shown)
VH: B1 VH with H35K, D57G
VL: B1 VL
notes: as for B1
B5: VH H35R (62BIT) (Fab, V domains shown)
VH: B1 VH with H35R, D57G
VL: B1 VL
notes: as for B1
B6: VH K59Q (28BIT) (Fab, V domains shown)
VH: B1 VH with D57G, K59Q
VL: B1 VL
notes: as for B1
B7: VH K59W (61BIT) (Fab, V domains shown)
VH: B1 VH with D57G, K59W
VL: B1 VL
notes: as for B1
B8: VH S31K (24BIT) (Fab, V domains shown)
VH: B1 VH with S31K, D57G
VL: B1 VL
notes: as for B1
B9: VH S31R (25BIT) (Fab, V domains shown)
VH: B1 VH with S31R, D57G
VL: B1 VL
notes: as for B1
B10: VH S55E (26BIT) (Fab, V domains shown)
VH: B1 VH with S55E, D57G
VL: B1 VL
notes: as for B1
B11: VL L94D (32BIT) (Fab, V domains shown)
VH: B1 VH with D57G
VL: B1 VL with L94D
notes: Heavy chain: parental 20E6 Fab HC, implied
B12: VL L94Q (33BIT) (Fab, V domains shown)
VH: B1 VH with D57G
VL: B1 VL with L94Q
notes: as for B11
B13: VL R53D (35BIT) (Fab, V domains shown)
VH: B1 VH with D57G
VL: B1 VL with R53D
notes: as for B11
B14: VL R53E (31BIT) (Fab, V domains shown)
VH: B1 VH with D57G
VL: B1 VL with R53E
notes: as for B11
B15: VL R53I (34BIT) (Fab, V domains shown)
VH: B1 VH with D57G
VL: B1 VL with R53I
notes: Heavy chain: parental 20E6 Fab HC, implied; also called VL R531 (34BIT)
B16: VL T30D (37BIT) (Fab, V domains shown)
VH: B1 VH with D57G
VL: B1 VL with T30D
notes: as for B11
B17: VL T30E (36BIT) (Fab, V domains shown)
VH: B1 VH with D57G
VL: B1 VL with T30E
notes: as for B11
B18: VL Q89Y (54BIT) (Fab, V domains shown)
VH: B1 VH with D57G
VL: B1 VL with Q89Y
B19: VL Q90Y (55BIT) (Fab, V domains shown)
VH: B1 VH with D57G
VL: B1 VL with Q90Y
B20: VL R24Y (38BIT) (Fab, V domains shown)
VH: B1 VH with D57G
VL: B1 VL with R24Y
B21: VL R53Y (50BIT) (Fab, V domains shown)
VH: B1 VH with D57G
VL: B1 VL with R53Y
B22: VL S26Y (40BIT) (Fab, V domains shown)
VH: B1 VH with D57G
VL: B1 VL with S26Y
B23: VL S52Y (49BIT) (Fab, V domains shown)
VH: B1 VH with D57G
VL: B1 VL with S52Y
B24: VL S56Y (53BIT) (Fab, V domains shown)
VH: B1 VH with D57G
VL: B1 VL with S56Y
B25: VL T30Y (44BIT) (Fab, V domains shown)
VH: B1 VH with D57G
VL: B1 VL with T30Y
B26: VL T51Y (48BIT) (Fab, V domains shown)
VH: B1 VH with D57G
VL: B1 VL with T51Y
B27: VL T93Y (58BIT) (Fab, V domains shown)
VH: B1 VH with D57G
VL: B1 VL with T93Y
B28: parental 20E6 humanized antibody (antibody, IgG1, V domains shown)
VH: B1 VH with D57G
VL: DIQMTQSPSSLSASVGDRVTITCRASQDITNYLNWYQQKPGKAVKLLIYYTSRLHSGVPSRFSGSGSGTDYTLTISSLQPEDFATYFCQQGDTLPWTFGQGTKLEIK
B29: 08BLM (antibody, human IgG1, kappa, L234A L235A, V domains shown)
VH: B1 VH with W33D, D57G, I58T, Y104Q
VL: B1 VL with T30Y, R53G, H55E, S56T
B30: 09BLM (antibody, human IgG1, kappa, L234A L235A, V domains shown)
VH: B1 VH with W33D, Q54I, D57G
VL: B1 VL with T30F, R53H, H55E, S56T
B31: 10BLM (antibody, human IgG1, kappa, L234A L235A, V domains shown)
VH: B1 VH with W33D, D57G, I58T
VL: B1 VL with T30Y, R53V, H55E, S56T
B32: 13BLM (antibody, human IgG1, kappa, L234A L235A, V domains shown)
VH: B1 VH with W33D, S55T, Y104Q
VL: B1 VL with T30Y, R53G, H55E, S56T

The binders below were run against T1, human LAP-TGFB1 Fc fusion (human) (assay: BLI off-rate screen).
T1 construct: also called human LAP-TGFβ1-Fc; human LAP-TGFβ-Fc isoform 1
T1 sequence (chain, as listed by the source limits assumed): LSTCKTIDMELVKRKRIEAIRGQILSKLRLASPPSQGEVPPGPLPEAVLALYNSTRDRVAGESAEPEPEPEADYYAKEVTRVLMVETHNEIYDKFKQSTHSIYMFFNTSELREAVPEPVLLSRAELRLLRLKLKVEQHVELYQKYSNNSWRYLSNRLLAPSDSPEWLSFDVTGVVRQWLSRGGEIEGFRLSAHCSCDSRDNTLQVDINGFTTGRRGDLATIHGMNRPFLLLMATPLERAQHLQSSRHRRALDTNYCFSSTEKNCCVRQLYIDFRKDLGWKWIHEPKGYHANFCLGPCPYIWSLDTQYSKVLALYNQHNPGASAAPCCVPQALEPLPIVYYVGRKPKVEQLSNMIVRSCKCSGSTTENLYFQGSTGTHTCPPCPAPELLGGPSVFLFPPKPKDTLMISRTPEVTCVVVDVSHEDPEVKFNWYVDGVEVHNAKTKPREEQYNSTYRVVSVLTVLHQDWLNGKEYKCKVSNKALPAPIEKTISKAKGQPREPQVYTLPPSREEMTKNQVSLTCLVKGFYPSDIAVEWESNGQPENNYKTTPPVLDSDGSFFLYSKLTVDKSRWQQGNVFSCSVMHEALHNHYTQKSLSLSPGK
Method: (§1) The Fab mutants including a positive control, 20E6 Fab, and a negative control Fab (Molecular Innovations, catalog HU-FAB-4510) were diluted to 200 nM in assay buffer and loaded to FAB2G sensors for 180 seconds followed by a one-hour incubation at room temperature in assay buffer to equilibrate the tips. The Fab loaded sensors were assessed for binding with 100 nM human LAP-TGFβ for 180 seconds followed by a 180 second dissociation phase in assay buffer on a ForteBio HTX (software version 9.0.0.66). Non-specific binding to the negative control Fab was subtracted and the binding sensorgrams were aligned to the start of the association phase on the X and Y axis. The Fab binding was fit with the 1:1 binding model, dissociation phase only, with local fitting using ForteBio Data Analysis 9.0 software.
Work on B1 yielded a Binding response of 0.582 nm, a Fold change of 1.3 fold and a koff of 0.0337 s⁻¹. B2 showed a Binding response of 0.69 nm, a Fold change of 1.1 fold and a koff of 0.0393 s⁻¹. For B3, the Binding response was 0.087 nm, the Fold change was 0.5 fold and the koff was 0.0845 s⁻¹. In the case of B4, the Binding response is reported as 0.115 nm, the Fold change is reported as 0.8 fold and the koff is reported as 0.0548 s⁻¹. In the case of B5, the Binding response is reported as 0.021 nm and the binding result is reported as “no binding (tested: 100 nM antigen)”. Work on B6 yielded a Binding response of 0.165 nm, a Fold change of 0.7 fold and a koff of 0.0596 s⁻¹. In the case of B7, the Binding response is reported as 0.035 nm and the binding result is reported as “no binding (tested: 100 nM antigen)”. Binder B8 has a Binding response of 0.625 nm, a Fold change of 1.1 fold and a koff of 0.037 s⁻¹. In the case of B9, the Binding response is reported as 0.069 nm, the Fold change is reported as 1 fold and the koff is reported as 0.0437 s⁻¹. B10 was tested, and the Binding response was 0.489 nm, the Fold change was 0.8 fold and the koff was 0.0519 s⁻¹. B11 was tested, and the Binding response was 0.195 nm, the Fold change was 0.7 fold and the koff was 0.0618 s⁻¹. Work on B12 yielded a Binding response of 0.341 nm, a Fold change of 0.7 fold and a koff of 0.0583 s⁻¹. Work on B13 yielded a Binding response of 0.398 nm, a Fold change of 1.2 fold and a koff of 0.0341 s⁻¹. With B14 the Binding response was 0.664 nm, the Fold change was 1.5 fold and the koff was 0.0286 s⁻¹. B15 gave a Binding response of 0.757 nm, a Fold change of 1.7 fold and a koff of 0.0246 s⁻¹. B16 showed a Binding response of 0.182 nm, a Fold change of 1.1 fold and a koff of 0.0402 s⁻¹. For B17, the Binding response was 0.439 nm, the Fold change was 1 fold and the koff was 0.0405 s⁻¹.

Molecular target: T1, human LAP-TGFB1 Fc fusion
Experiment: BLI off-rate screen
Remark: another data set of the same source
Method: as §1
Twenty-three variants containing a single tyrosine substitution in the light chain CDRs (at one of amino acid positions 24-31, 33, 34, 51-56, and 89-95 according to Kabat numbering scheme) and 21 similar heavy chain CDR variants (at amino acids positions 28-31, 33-35, 50-58 including 52a, 95, 96, 98, and 99 according to Kabat numbering scheme) were generated according to FIG. 1 and listed in Table 6 and their interactions with human LAP-TGFb1 were analyzed by ForteBio interferometry. […] In those sequences the VL is correct, even though these sequences are from the heavy chain. Thus, the VL_X ##Y refers to the position of the tyrosine mutation within the antibody, regardless of whether the sequence is a heavy or light chain.
In the case of B18, the Binding response is reported as 0.035 nm and the binding result is reported as “no binding (tested: 100 nM antigen)”. For B19, the Binding response was 0.04 nm and the binding result was “no binding (tested: 100 nM antigen)”. B20 gave a Binding response of 0.446 nm, a Fold change of 1.6 fold and a koff of 0.027 s⁻¹. B21 was tested, and the Binding response was 0.365 nm, the Fold change was 1.6 fold and the koff was 0.027 s⁻¹. Binder B22 has a Binding response of 0.371 nm, a Fold change of 1.5 fold and a koff of 0.0283 s⁻¹. In the case of B23, the Binding response is reported as 0.431 nm, the Fold change is reported as 1 fold and the koff is reported as 0.0409 s⁻¹. Work on B24 yielded a Binding response of 0.344 nm, a Fold change of 1.3 fold and a koff of 0.0324 s⁻¹. In the case of B25, the Binding response is reported as 0.472 nm, the Fold change is reported as 2.6 fold and the koff is reported as 0.0162 s⁻¹. B26 gave a Binding response of 0.204 nm, a Fold change of 0.8 fold and a koff of 0.0508 s⁻¹. Binder B27 has a Binding response of 0.586 nm, a Fold change of 1.5 fold and a koff of 0.0273 s⁻¹.

What follows are binders tested against human LAP-TGFβ1 expressed on P3U1 cells (human, UniProt P01137 30-390) (assay: cell-based or functional assay).
Chain of human LAP-TGFβ1 expressed on P3U1 cells (P01137 30-390): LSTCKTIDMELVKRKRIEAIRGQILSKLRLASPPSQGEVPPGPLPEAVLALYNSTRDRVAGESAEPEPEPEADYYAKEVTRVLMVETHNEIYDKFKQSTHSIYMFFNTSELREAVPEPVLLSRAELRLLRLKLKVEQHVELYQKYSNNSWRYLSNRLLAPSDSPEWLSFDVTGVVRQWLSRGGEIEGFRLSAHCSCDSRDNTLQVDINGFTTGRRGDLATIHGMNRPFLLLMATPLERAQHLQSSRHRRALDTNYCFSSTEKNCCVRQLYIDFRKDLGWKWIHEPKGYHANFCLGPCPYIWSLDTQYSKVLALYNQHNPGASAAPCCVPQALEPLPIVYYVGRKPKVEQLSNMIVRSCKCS
With B28 the “Average EC50” value was 5.64 µg/mL, the “ELISA assay 2 EC50” value was 8.9 µg/mL and the “ELISA assay #1 EC50” value was 2.38 µg/mL. B29 was tested, and the “Average EC50” value was 0.076 µg/mL, the “ELISA assay 2 EC50” value was 0.098 µg/mL and the “ELISA assay #1 EC50” value was 0.0539 µg/mL. B30 was tested, and the “Average EC50” value was 0.08 µg/mL, the “ELISA assay 2 EC50” value was 0.13 µg/mL and the “ELISA assay #1 EC50” value was 0.0295 µg/mL. With B31 the “Average EC50” value was 0.083 µg/mL, the “ELISA assay 2 EC50” value was 0.134 µg/mL and the “ELISA assay #1 EC50” value was 0.0332 µg/mL. B32 was tested, and the “Average EC50” value was 0.092 µg/mL, the “ELISA assay 2 EC50” value was 0.105 µg/mL and the “ELISA assay #1 EC50” value was 0.0785 µg/mL.

Source: US20230272056A1 (Merck Sharp & Dohme, published 2023)
